# Test results taken from patent US20250257133A1 (ADAGENE PTE, published 2025).
# Changes are numbered by the printed parent chain. Names may count otherwise.
# B1: TY28657 (bispecific antibody, human IgG1, kappa, N297A)
# light: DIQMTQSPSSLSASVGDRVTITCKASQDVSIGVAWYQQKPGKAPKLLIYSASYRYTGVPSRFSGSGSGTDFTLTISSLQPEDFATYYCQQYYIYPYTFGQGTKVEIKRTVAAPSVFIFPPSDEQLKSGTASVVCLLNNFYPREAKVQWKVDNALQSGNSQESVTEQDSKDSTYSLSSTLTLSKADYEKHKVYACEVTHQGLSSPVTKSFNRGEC
# heavy: EVQLVESGGGLVQPGGSLRLSCAASGFTFTDYTMDWVRQAPGKGLEWVADVNPNSGGSIYNQRFKGRFTLSVDRSKNTLYLQMNSLRAEDTAVYYCARNLGPSFYFDYWGQGTLVTVSSASTKGPSVFPLAPSSKSTSGGTAALGCLVKDYFPEPVTVSWNSGALTSGVHTFPAVLQSSGLYSLSSVVTVPSSSLGTQTYICNVNHKPSNTKVDKKVEPKSCDKTHTCPPCPAPELLGGPSVFLFPPKPKDTLMISRTPEVTCVVVDVSHEDPEVKFNWYVDGVEVHNAKTKPREEQYASTYRVVSVLTVLHQDWLNGKEYKCKVSNKALPAPIEKTISKAKGQPREPQVYTLPPSRKKLTKNQVKLTCLVKGFYPSDIAVEWESNGQPENNYKTTPPVLDCDGSFFLYSKLTVDKSRWQQGNVFSCSVMHEALHNHYTQKSLSLSPGK
# chain: DIQLTQSPSSLSASVGDRVTITCRASQSVDFHGISFLHWYQQKPGKAPKLLIYAASSLESGVPSRFSGSGSGTDFTLTISSLQPEDFATYYCQQSYRTPRTFGQGTKVEIKGGGGSGGGGSGGGGSGGGGSEVQLVESGGGLVQPGGSLRLSCAASGFSLSTGGVGVGWIRQAPGKGLEWIGEIYHSGSTYYNPSLKSRVTISRDNSKNTLYLQLNSLRAEDTAVYYCARYEYGYYAFDYWGQGTLVTVSSEPKSSDKTHTCPPCPAPELLGGPSVFLFPPKPKDTLMISRTPEVTCVVVDVSHEDPEVKFNWYVDGVEVHNAKTKPREEQYASTYRVVSVLTVLHQDWLNGKEYKCKVSNKALPAPIEKTISKAKGQPREPQVYTDPPSRDELTKNQVSLTCLVDGFYPSDIAVEWESNGQPENCYKTTPPVLDSDGSFFLYSKLTVDKSRWQQGNVFSCSVMHEALHNHYTQDSLSLSPGK
# notes: anti-HER2 Fab x CD28 scFv BC8237 (VL-VH)-Fc
# B2: TY29109 (bispecific antibody, human IgG1, kappa, N297A)
# light: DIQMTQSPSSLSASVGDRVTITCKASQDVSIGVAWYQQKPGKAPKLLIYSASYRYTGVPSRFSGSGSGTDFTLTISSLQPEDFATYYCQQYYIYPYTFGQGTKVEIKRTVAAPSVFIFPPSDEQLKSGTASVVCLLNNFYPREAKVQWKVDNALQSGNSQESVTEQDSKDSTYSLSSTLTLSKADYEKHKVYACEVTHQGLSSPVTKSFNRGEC
# heavy: B1 heavy
# chain: EVQLVESGGGLVQPGGSLRLSCAASGFSLSTGGVGVSWIRQAPGKGLEWIGEIYHSGSTYYSPSLKSRVTISRDNSKNTLYLQLNSLRAEDTAVYYCARYEYYYYDFDYWGQGTLVTVSSGGGGSGGGGSGGGGSGGGGSDIQLTQSPSSLSASVGDRVTITCRASQSVDFHGISFLHWYQQKPGKAPKLLIYAASSLQSGVPSRFSGSGSGTDFTLTISSLQPEDFATYYCQQSYRSPRTFGQGTKVEIKEPKSSDKTHTCPPCPAPELLGGPSVFLFPPKPKDTLMISRTPEVTCVVVDVSHEDPEVKFNWYVDGVEVHNAKTKPREEQYASTYRVVSVLTVLHQDWLNGKEYKCKVSNKALPAPIEKTISKAKGQPREPQVYTDPPSRDELTKNQVSLTCLVDGFYPSDIAVEWESNGQPENCYKTTPPVLDSDGSFFLYSKLTVDKSRWQQGNVFSCSVMHEALHNHYTQDSLSLSPGK
# notes: anti-HER2 Fab x CD28 scFv WT (VH-VL)-Fc; also called TY29109 (WT)
# B3: TY28658 (bispecific antibody, human IgG1, kappa, N297A)
# light: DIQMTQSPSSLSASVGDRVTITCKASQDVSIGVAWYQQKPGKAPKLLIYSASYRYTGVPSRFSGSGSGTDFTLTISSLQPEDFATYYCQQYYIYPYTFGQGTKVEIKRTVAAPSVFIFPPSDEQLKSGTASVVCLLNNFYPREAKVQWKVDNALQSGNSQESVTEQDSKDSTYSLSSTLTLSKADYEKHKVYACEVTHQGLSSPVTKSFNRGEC
# heavy: B1 heavy
# chain: B1 chain with H32Y, I34K, T98S, R100L, G163S, E183S, G234D, A237D
# notes: anti-HER2 Fab x CD28 scFv BC8240 (VL-VH)-Fc
# B4: TY29309 (bispecific antibody, human IgG1, kappa, N297A)
# light: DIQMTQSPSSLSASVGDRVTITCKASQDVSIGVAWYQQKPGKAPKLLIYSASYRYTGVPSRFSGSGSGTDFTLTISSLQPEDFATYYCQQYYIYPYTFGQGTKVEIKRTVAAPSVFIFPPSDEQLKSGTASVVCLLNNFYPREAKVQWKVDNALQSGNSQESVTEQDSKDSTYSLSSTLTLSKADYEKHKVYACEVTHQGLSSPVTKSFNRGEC
# heavy: B1 heavy
# chain: B2 chain with G32S, E52S, S62N, Y103D, D106A, H172Y, S238T
# notes: anti-HER2 Fab x CD28 scFv BC8233 (VH-VL)-Fc
# B5: TY29314 (bispecific antibody, human IgG1, kappa, N297A)
# light: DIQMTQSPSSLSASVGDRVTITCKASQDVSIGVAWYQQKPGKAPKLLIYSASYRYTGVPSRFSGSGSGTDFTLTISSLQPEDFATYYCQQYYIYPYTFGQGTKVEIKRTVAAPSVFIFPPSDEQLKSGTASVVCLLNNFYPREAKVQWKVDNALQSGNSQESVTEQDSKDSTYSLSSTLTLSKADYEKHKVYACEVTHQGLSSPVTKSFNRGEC
# heavy: B1 heavy
# chain: B2 chain with G32S, Y104S, D106A, I174K
# notes: anti-HER2 Fab x CD28 scFv BC8257 (VH-VL)-Fc
# B6: TY29310 (bispecific antibody, human IgG1, kappa, N297A)
# light: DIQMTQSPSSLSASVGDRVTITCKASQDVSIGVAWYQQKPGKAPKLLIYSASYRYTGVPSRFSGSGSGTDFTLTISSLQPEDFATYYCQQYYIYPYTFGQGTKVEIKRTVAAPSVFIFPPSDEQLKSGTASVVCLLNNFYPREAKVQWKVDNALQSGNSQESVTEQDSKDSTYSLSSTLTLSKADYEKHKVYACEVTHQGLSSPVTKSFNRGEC
# heavy: B1 heavy
# chain: B2 chain with G32S, S37G, Y60N, S62N, Y103G, D106A, F107L, H172Y, I174K, S238T
# notes: anti-HER2 Fab x CD28 scFv BC8235 (VH-VL)-Fc
# B7: TY29311 (bispecific antibody, human IgG1, kappa, N297A)
# light: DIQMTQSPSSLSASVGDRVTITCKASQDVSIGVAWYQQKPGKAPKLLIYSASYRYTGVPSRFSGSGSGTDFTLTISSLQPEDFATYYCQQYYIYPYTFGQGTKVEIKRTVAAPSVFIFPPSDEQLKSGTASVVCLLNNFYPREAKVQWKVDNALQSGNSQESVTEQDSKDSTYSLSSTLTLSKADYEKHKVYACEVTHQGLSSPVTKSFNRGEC
# heavy: B1 heavy
# chain: B2 chain with S37G, S62N, Y103G, D106A, Q199E, S238T
# notes: anti-HER2 Fab x CD28 scFv BC8237 (VH-VL)-Fc
# B8: TY28659 (bispecific antibody, human IgG1, kappa, N297A)
# light: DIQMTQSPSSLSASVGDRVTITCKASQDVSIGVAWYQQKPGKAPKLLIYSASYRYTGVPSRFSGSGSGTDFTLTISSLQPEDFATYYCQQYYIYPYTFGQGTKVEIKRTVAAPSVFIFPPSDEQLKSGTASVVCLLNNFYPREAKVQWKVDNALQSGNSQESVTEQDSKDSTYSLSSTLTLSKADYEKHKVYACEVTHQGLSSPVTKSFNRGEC
# heavy: B1 heavy
# chain: B1 chain with E59Q, T98S, G163S, G168S
# notes: anti-HER2 Fab x CD28 scFv BC8242 (VL-VH)-Fc
# B9: TY29312 (bispecific antibody, human IgG1, kappa, N297A)
# light: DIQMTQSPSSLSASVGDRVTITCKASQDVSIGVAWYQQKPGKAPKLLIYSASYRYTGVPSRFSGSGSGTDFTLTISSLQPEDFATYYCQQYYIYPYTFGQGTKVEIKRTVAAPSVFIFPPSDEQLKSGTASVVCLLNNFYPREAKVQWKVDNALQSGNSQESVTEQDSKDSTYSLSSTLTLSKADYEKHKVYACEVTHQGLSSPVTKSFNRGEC
# heavy: B1 heavy
# chain: B2 chain with G32S, S37G, E52S, S62N, Y103D, H172Y, I174K, Q199E, R240L
# notes: anti-HER2 Fab x CD28 scFv BC8240 (VH-VL)-Fc
# B10: TY29306 (bispecific antibody, human IgG1, kappa, N297A)
# light: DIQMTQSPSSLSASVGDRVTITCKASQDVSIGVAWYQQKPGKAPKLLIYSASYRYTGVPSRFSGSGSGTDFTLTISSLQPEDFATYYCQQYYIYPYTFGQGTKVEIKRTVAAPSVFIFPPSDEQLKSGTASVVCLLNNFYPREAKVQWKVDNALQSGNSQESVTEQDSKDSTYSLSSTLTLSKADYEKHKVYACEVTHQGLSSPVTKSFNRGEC
# heavy: B1 heavy
# chain: B2 chain with E52S, S62N, Y103D, D106A, H172Y, I174K, Q199E, R240P
# notes: anti-HER2 Fab x CD28 scFv BC8227 (VH-VL)-Fc
# B11: TY29313 (bispecific antibody, human IgG1, kappa, N297A)
# light: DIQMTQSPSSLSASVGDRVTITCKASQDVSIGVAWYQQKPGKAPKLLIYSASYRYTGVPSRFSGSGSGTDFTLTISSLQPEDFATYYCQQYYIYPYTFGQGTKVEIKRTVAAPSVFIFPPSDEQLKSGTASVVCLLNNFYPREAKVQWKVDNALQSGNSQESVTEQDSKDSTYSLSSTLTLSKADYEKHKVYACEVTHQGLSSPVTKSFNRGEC
# heavy: B1 heavy
# chain: B2 chain with G32S, S62N, Y103G, D106A
# notes: anti-HER2 Fab x CD28 scFv BC8242 (VH-VL)-Fc
# B12: TY28660 (bispecific antibody, human IgG1, kappa, N297A)
# light: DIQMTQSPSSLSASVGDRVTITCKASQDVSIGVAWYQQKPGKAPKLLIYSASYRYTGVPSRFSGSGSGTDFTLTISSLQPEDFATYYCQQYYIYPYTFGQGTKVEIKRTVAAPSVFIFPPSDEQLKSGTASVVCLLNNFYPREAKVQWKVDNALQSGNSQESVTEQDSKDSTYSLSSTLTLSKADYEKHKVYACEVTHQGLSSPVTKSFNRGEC
# heavy: B1 heavy
# chain: B1 chain with I34K, E59Q, T98S, G163S, G168S, N193S, G234Y, Y235S
# notes: anti-HER2 Fab x CD28 scFv BC8257 (VL-VH)-Fc
# B13: TY29308 (bispecific antibody, human IgG1, kappa, N297A)
# light: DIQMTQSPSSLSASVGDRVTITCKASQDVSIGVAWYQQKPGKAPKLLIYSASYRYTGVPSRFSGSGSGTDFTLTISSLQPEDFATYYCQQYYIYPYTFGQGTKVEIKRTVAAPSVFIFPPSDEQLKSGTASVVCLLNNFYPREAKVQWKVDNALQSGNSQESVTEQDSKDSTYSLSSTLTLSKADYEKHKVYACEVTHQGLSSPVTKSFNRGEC
# heavy: B1 heavy
# chain: B2 chain with G32S, E52S, S62N, Y103G, D106A, H172Y, I174K, S238T, R240L
# notes: anti-HER2 Fab x CD28 scFv BC8230 (VH-VL)-Fc
# B14: TY29315 (bispecific antibody, human IgG1, kappa, N297A)
# light: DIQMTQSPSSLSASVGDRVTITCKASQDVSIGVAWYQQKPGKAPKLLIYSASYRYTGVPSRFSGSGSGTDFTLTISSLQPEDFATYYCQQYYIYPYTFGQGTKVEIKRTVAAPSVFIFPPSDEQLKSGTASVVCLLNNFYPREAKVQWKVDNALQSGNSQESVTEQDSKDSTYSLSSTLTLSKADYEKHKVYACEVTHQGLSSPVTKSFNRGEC
# heavy: B1 heavy
# chain: B2 chain with E52S, Y103D, D106A, H172Y, Q199E, S238T, R240L
# notes: anti-HER2 Fab x CD28 scFv BC8263 (VH-VL)-Fc
# B15: TY29307 (bispecific antibody, human IgG1, kappa, N297A)
# light: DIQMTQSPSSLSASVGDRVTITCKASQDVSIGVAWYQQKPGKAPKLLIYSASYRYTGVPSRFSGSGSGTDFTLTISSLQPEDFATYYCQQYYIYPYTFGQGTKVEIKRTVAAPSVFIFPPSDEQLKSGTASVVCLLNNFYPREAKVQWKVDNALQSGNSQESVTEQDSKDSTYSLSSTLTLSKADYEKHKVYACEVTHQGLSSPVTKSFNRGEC
# heavy: B1 heavy
# chain: B2 chain with E52S, S62N, Y103G, D106A, F107L, H172Y, S238T, R240P
# notes: anti-HER2 Fab x CD28 scFv BC8228 (VH-VL)-Fc
# B16: TY28661 (bispecific antibody, human IgG1, kappa, N297A)
# light: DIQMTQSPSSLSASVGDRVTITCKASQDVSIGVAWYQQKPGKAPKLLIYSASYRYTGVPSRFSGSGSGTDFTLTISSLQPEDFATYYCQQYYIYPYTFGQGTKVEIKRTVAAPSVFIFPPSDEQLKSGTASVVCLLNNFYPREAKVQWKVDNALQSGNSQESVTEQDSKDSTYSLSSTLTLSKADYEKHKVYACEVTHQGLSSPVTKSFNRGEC
# heavy: B1 heavy
# chain: B1 chain with H32Y, R100L, G168S, E183S, N193S, G234D
# notes: anti-HER2 Fab x CD28 scFv BC8263 (VL-VH)-Fc
# B17: TY24881 (antibody, human IgG4 S228P, kappa, V domains shown)
# VH: QVQLVQSGAEVKKPGSSVKVSCKASGFSLSTGGVGVTWIRQAPGQGLEWIGSIYHSGSTYYSPSLKSRVTITADKSTSTAYMELSSLRSEDTAVYYCARYDYGYYSFDVWGQGTLVTVSS
# VL: DIQLTQSPSSLSASVGDRVTITCRASQSVDFDAFSFLAWYQQKPGKAPKLLIYAASTLQSGVPSRFSGSGSGTDFTLTISSLQPEDFATYYCQQSYSASTFGQGTKVEIKR
# notes: hIgG4/S241P
# B18: TY24855 (antibody, human IgG4 S228P, kappa, V domains shown)
# VH: EVQLVESGGGLVQPGGSLRLSCAASGYSITSGHHWSWIRQAPGKGLEWIGDIYHSGSTYYNPSLKSRVTISRDNSKNTLYLQLNSLRAEDTAVYYCARKDDYYAFDYWGQGTLVTVSS
# VL: DIQLTQSPSSLSASVGDRVTITCRAPQSVDFHGKSFLHWYQQKPGKAPKLLIYDASNRATGIPSRFSGSGSGTDFTLTISSLQPEDFATYYCQQSYRSPITFGQGTKVEIKR
# notes: hIgG4/S241P
# B19: TY24858 (antibody, human IgG4 S228P, kappa, V domains shown)
# VH: EVQLVESGGGLVQPGGSLRLSCAASGYSISSGHHWTWIRQAPGKGLEWIGEIYHSGSTYYSPSLKSRVTISRDNSKNTLYLQLNSLRAEDTAVYYCARRDYGSSYFDYWGQGTLVTVSS
# VL: DIQLTQSPSSLSASVGDRVTITCRASQSVSRSFLAWYQQKPGKAPKLLIYDASNRATGIPSRFSGSGSGTDFTLTISSLQPEDFATYYCQQYYRSPITFGQGTKVEIKR
# notes: hIgG4/S241P
# B20: TY24864 (antibody, human IgG4 S228P, kappa, V domains shown)
# VH: EVQLVESGGGLVQPGGSLRLSCAASGFSLSTSGVGVSWIRQAPGKGLEWIGAIYHSGSTYYSPSLKSRVTISRDNSKNTLYLQLNSLRAEDTAVYYCARYGYSYYAFDYWGQGTLVTVSS
# VL: DIQLTQSPSSLSASVGDRVTITCRASQTIGSFLNWYQQKPGKAPKLLIYDASSLESGVPSRFSGSGSGTDFTLTISSLQPEDFATYYCQQSYSYQTFGQGTKVEIKR
# notes: hIgG4/S241P
# B21: TY24857 (antibody, human IgG4 S228P, kappa, V domains shown)
# VH: B20 VH with G35A, S37G, A52E, Y100H, S103H, F107L
# VL: DIQLTQSPSSLSASVGDRVTITCPASQDVGTAVAWYQQKPGKAPKLLIYDASSLESGVPSRFSGSGSGTDFTLTISSLQPEDFATYYCQQYYSSPPTFGQGTKVEIKR
# notes: hIgG4/S241P
# B22: TY24856 (antibody, human IgG4 S228P, kappa, V domains shown)
# VH: B19 VH with T36S, Y101F, S103A
# VL: B20 VL with T28G, I29V, S31P, F32W, N34A, D50A, E55Q, S91Y, Q95S
# notes: hIgG4/S241P
# B23: TY24854 (antibody, human IgG4 S228P, kappa, V domains shown)
# VH: EVQLVESGGGLVQPGGSLRLSCAASGYSITSGYHWGWIRQAPGKGLEWIGEIYHSGSTYYSPSLKSRVTISRDNSKNTLYLQLNSLRAEDTAVYYCARRRGDGYFDFWGQGTLVTVSS
# VL: B18 VL with P26S, H32L, K34I, S98T, I100L
# notes: hIgG4/S241P
# B24: TY24871 (antibody, human IgG4 S228P, kappa, V domains shown)
# VH: QVQLVQSGAEVKKPGSSVKVSCKASGFTFSSYAIHWVRQAPGQGLEWIGSIYHSGSTYYSPSLKSRVTITADKSTSTAYMELSSLRSEDTAVYYCARDVYGSYALDVWGQGTLVTVSS
# VL: B18 VL with P26S, H32D, K34I, N57S, R58L, A59E, T60S, I62V
# notes: hIgG4/S241P
# Molecular target: Human CD28 (ELISAs of Examples 4 and 13) (human, UniProt P10747 19-152, limits assumed)
# Experiment: ELISA
row,EC50 [nM],Binder
1,5.29,B1
2,30.3,B2
3,78,B3
4,27.7,B4
5,27.5,B5
6,349,B6
7,91.3,B7
8,0.954,B8
9,624,B9
10,9.27,B10
11,6.97,B11
12,3.77,B12
13,417,B13
14,291,B14
15,27.8,B15
16,52.6,B16

# Molecular target: T1, His-tagged human CTLA4 protein (human, UniProt P16410 36-161, limits assumed)
# T1 construct: not shown: His tag
# Experiment: Octet BLI, mAb captured;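 also: Anti-human Fc biosensors captured the antibodies, then His-tagged protein analytes at 100 nM associated for 300 s and dissociated for 300 s, fitted by a 1:1 Langmuir model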
# T1 sequence (P16410 36-161 limits assumed): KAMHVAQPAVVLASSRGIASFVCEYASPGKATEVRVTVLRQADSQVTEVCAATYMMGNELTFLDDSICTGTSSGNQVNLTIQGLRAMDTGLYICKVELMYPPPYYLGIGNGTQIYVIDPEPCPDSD
Kd [nM],koff [s⁻¹],kon [M⁻¹ s⁻¹],Binder
2.35,0.00262,1.11e+06,B17
4.02,0.00305,760000,B18
7.9,0.00242,306000,B19
5.5,0.00284,517000,B20
5.44,0.00355,652000,B21
5.13,0.00156,304000,B22

# Molecular target: T2, His-tagged human CD28 protein (human, UniProt P10747 19-152)
# T2 construct: not shown: His tag
# Experiment: Octet BLI, mAb captured;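 also: Anti-human Fc biosensors captured the antibodies, then His-tagged protein analytes at 100 nM associated for 300 s and dissociated for 300 s, fitted by a 1:1 Langmuir model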
Kd [nM],koff [s⁻¹],kon [M⁻¹ s⁻¹],Binder
5.25,0.000662,126000,B17
5.43,0.000353,64900,B23
7.93,0.000628,79200,B18
4.99,0.00035,70100,B24
9.88,0.000702,71000,B19
4.41,0.000416,94200,B20
8.64,0.00063,72900,B21
7.8,0.000538,68900,B22

# Molecular target: T3, Human CD28 on cells (human, UniProt P10747 19-220)
# T3 construct: Jurkat E6-1 cells, primary human T cells, or transfected HEK293F cells; also called CD28 on Jurkat cells; CD28 on human CD3+ T cells
# Experiment: flow cytometry, Jurkat cells
row,EC50 [nM],Binder
1,0.38,B17
2,0.6,B23
3,0.61,B18
4,0.89,B24
5,0.7,B19
6,0.54,B20
7,0.75,B21
8,0.76,B22
